Assay results from paper PMC2734569, “Functional mapping of the fission yeast DNA polymerase δ B-subunit Cdc1 by site-directed and random pentapeptide insertion mutagenesis” (BMC Molecular Biology, 2009).

Columns and labels:
Cdc1-A10 = target: T1, Cdc1-A10 (Schizosaccharomyces pombe, UniProt P87324 1-462, Asn328Ala | Pro329Ala); assay: two-hybrid; LexA-Cdc1 bait (pBTM116 or pBTM116BN) with Gal4-Pol3 prey and co-expressed c-myc-tagged Cdc27 (pAA-Cdc27) in S. cerevisiae CTY10-5d; ONPG liquid culture beta-galactosidase assay, mean of triplicates, as percent of wild-type Cdc1; details: partners not purified
T1 construct: Cdc1, S. pombe, double point mutant (A5 and A6 combined); source: yeast two-hybrid fusion, in S. cerevisiae CTY10-5d
T1 sequence (looked up): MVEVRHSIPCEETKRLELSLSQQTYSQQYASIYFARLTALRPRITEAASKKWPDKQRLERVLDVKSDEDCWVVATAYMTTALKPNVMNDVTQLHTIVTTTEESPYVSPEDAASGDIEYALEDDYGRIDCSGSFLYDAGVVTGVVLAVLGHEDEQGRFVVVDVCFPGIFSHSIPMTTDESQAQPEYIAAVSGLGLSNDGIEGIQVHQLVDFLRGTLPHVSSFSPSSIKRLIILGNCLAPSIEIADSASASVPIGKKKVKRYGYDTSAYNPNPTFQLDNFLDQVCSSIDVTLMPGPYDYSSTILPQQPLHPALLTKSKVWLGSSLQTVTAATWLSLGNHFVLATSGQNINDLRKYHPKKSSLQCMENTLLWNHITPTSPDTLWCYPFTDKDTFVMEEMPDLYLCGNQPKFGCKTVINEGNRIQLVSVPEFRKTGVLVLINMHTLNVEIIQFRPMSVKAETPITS

Cdc1-A7 = target: T2, Cdc1-A7 (Schizosaccharomyces pombe, UniProt P87324 1-462, Gly344Ala); assay: as above; details: partners not purified
T2 construct: Cdc1, S. pombe, point mutant; source: yeast two-hybrid fusion, in S. cerevisiae CTY10-5d
T2 sequence (looked up): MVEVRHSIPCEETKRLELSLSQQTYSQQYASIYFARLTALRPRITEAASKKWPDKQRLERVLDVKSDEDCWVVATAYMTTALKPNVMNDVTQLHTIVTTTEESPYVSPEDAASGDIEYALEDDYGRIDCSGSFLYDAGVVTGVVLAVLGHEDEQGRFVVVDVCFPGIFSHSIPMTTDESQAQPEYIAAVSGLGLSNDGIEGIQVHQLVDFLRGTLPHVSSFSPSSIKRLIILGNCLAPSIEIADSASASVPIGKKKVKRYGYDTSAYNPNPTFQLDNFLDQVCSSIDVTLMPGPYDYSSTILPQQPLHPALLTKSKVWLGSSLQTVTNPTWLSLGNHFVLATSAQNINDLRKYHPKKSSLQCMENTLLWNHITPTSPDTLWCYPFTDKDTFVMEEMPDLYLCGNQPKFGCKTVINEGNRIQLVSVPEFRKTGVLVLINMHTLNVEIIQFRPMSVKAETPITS

Cdc1-J2 = target: T3, Cdc1-J2 (Schizosaccharomyces pombe, UniProt P87324 1-462, Tyr-ArgGlyThrProTyr-Ser); assay: as above; details: partners not purified
T3 construct: Cdc1, S. pombe, with a pentapeptide inserted after residue 25; also called J18; J20; source: yeast two-hybrid fusion, in S. cerevisiae CTY10-5d
T3 sequence (looked up): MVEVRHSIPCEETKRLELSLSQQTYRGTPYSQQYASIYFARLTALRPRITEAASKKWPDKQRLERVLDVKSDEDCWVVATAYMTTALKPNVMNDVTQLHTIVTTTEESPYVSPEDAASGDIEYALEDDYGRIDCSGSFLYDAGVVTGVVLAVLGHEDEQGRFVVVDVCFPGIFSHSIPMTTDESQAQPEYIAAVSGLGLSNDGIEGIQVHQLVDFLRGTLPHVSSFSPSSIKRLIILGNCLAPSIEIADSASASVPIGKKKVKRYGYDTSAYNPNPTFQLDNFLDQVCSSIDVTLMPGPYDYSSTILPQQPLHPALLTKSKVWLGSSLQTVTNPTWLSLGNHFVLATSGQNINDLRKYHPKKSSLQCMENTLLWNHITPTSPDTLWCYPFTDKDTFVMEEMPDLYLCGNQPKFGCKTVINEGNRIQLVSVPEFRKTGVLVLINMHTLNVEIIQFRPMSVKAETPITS

Cdc1-J4 = target: T4, Cdc1-J4 (Schizosaccharomyces pombe, UniProt P87324 1-462, Ile-GlyValProArgIle-Asp); assay: two-hybrid; LexA-Cdc1 bait (pBTM116 or pBTM116BN) with Gal4 activation domain-Cdc27 prey (pGAD2F-Cdc27) in S. cerevisiae CTY10-5d; ONPG liquid culture beta-galactosidase assay, mean of triplicates, as percent of wild-type Cdc1; details: partners not purified
T4 construct: Cdc1, S. pombe, with a pentapeptide inserted after residue 127; also called J5; J13; source: yeast two-hybrid fusion, in S. cerevisiae CTY10-5d
T4 sequence (looked up): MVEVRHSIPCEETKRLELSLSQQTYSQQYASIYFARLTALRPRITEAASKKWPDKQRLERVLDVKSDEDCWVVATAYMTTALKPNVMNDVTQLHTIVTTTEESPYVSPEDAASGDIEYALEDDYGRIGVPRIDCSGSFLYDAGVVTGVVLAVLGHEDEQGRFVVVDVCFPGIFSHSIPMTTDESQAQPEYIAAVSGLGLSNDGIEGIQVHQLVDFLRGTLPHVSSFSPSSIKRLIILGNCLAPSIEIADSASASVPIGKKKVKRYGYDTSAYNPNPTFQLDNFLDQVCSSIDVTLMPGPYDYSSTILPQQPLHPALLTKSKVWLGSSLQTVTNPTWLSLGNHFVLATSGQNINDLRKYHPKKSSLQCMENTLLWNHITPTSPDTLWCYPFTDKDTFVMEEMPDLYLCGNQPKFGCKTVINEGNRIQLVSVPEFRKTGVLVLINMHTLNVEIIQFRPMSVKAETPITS

[1] = target: Cdc1-J17 (Schizosaccharomyces pombe) (UniProt P87324); assay: as above

B1: Pol3 (fission yeast DNA polymerase delta catalytic subunit) (natural protein, Schizosaccharomyces pombe, UniProt P30316 1-1086, looked up)
chain: MTDRSSNEGVVLNKENYPFPRRNGSIHGEITDVKRRRLSERNGYGDKKGSSSKEKTSSFEDELAEYASQLDQDEIKSSKDQQWQRPALPAINPEKDDIYFQQIDSEEFTEGSVPSIRLFGVTDNGNSILVHVVGFLPYFYVKAPVGFRPEMLERFTQDLDATCNGGVIDHCIIEMKENLYGFQGNEKSPFIKIFTTNPRILSRARNVFERGEFNFEELFPVGVGVTTFESNTQYLLRFMIDCDVVGMNWIHLPASKYQFRYQNRVSNCQIEAWINYKDLISLPAEGQWSKMAPLRIMSFDIECAGRKGVFPDPSIDPVIQIASIVTQYGDSTPFVRNVFCVDTCSQIVGTQVYEFQNQAEMLSSWSKFVRDVDPDVLIGYNICNFDIPYLLDRAKSLRIHNFPLLGRIHNFFSVAKETTFSSKAYGTRESKTTSIPGRLQLDMLQVMQRDFKLRSYSLNAVCSQFLGEQKEDVHYSIITDLQNGTADSRRRLAIYCLKDAYLPQRLMDKLMCFVNYTEMARVTGVPFNFLLARGQQIKVISQLFRKALQHDLVVPNIRVNGTDEQYEGATVIEPIKGYYDTPIATLDFSSLYPSIMQAHNLCYTTLLDSNTAELLKLKQDVDYSVTPNGDYFVKPHVRKGLLPIILADLLNARKKAKADLKKETDPFKKAVLDGRQLALKVSANSVYGFTGATNGRLPCLAISSSVTSYGRQMIEKTKDVVEKRYRIENGYSHDAVVIYGDTDSVMVKFGVKTLPEAMKLGEEAANYVSDQFPNPIKLEFEKVYFPYLLISKKRYAGLFWTRTDTYDKMDSKGIETVRRDNCPLVSYVIDTALRKMLIDQDVEGAQLFTKKVISDLLQNKIDMSQLVITKALSKTDYAAKMAHVELAERMRKRDAGSAPAIGDRVAYVIIKGAQGDQFYMRSEDPIYVLENNIPIDAKYYLENQLSKPLLRIFEPILGEKASSLLHGDHTRTISMAAPSVGGIMKFAVKVETCLGCKAPIKKGKTALCENCLNRSAELYQRQVAQVNDLEVRFARLWTQCQRCQGSMHQDVICTSRDCPIFYMRIAEHKKLQQSVDLLKRFDEMSW
notes: DNA polymerase delta catalytic subunit Pol3, S. pombe; prey plasmid named pACT-Pol3 in the results and pGAD2F-Pol3 in the methods; also called Gal4-Pol3; pACT-Pol3; source: yeast two-hybrid fusion, in S. cerevisiae CTY10-5d
Question: Which results are given for B1?
Answer: two-hybrid beta-galactosidase activity, % of wild-type Cdc1 (Cdc1-A10): < 1%; two-hybrid beta-galactosidase activity, % of wild-type Cdc1 (Cdc1-A7): 9%; two-hybrid beta-galactosidase activity, % of wild-type Cdc1 (Cdc1-J2): 46%

B2: Cdc27 (fission yeast DNA polymerase delta C-subunit) (natural protein, Schizosaccharomyces pombe, UniProt P30261 1-372, looked up)
chain: MEEWRNFLDIKVINESSLVTVDNLSLQLDISSEKAQEYLNMFYQGNDFLYPIYLIHGQPIDDEINLEIDEESQPISNFPVLQYILCDKSSLQEKQSRLKSGYKTVIFALSSAPLSDFDELLPAVYEIREKDVLYKKEDADKYGFIFNENSVPRVLKKAPSTHSPQLSVPSKTSTIDKTDTRSTEKTKGKDIFSNARNQKGNSSRKNKKAPLENHKEKEPLLPKEEKLSEQAKRERDDLKNIMQLEDESVSTTSVHDSEDDNLDSNNFQLEIGTEAKSAAPDEPQEIIKSVSGGKRRGKRKVKKYATTKDEEGFLVTKEEEVWESFSEDENISTGTSNVVRNKPTTVNIATKKKNTAQSKPQQKSIMSFFGKK
notes: DNA polymerase delta C-subunit Cdc27, S. pombe; prey plasmid pGAD2F-Cdc27; also called pGAD2F-Cdc27; source: yeast two-hybrid fusion, in S. cerevisiae CTY10-5d
Question: Which results are given for B2?
Answer: two-hybrid beta-galactosidase activity, % of wild-type Cdc1 (Cdc1-J4): < 1%; two-hybrid beta-galactosidase activity, % of wild-type Cdc1 [1]: < 1%
